The values that follow come from patent US20230365641A1 (XILIO DEVELOPMENT, published 2023).

Like-named read-outs stand apart in the source and are kept apart here.

For test [1], the target named is T1, PD-1 (antigen of the ELISA and of the in vitro affinity measurement) (UniProt Q15116 25-167, limits assumed). As to the kind of experiment: kinetic binding table: TC4 captured as ligand (capture level 74.3 RU), hPD1-his as sample; method not given.
Test [2] deals with T1, PD-1 (antigen of the ELISA and of the …). The experiment in a line: ELISA.
Test [3] has the same target. As to the kind of experiment: ELISA on PD-1.
Test [4] shares this target. As to the kind of experiment: ELISA on PD-1. This is another data set of the same source. For orientation: In an ELISA, binding on a coated surface is turned into a signal by an enzyme label.
The target is the same in test [5]. As to the kind of experiment: ELISA on PD-1. This is another data set of the same source.
For test [6] the target is unchanged. As to the kind of experiment: ELISA on PD-1. This is another data set of the same source.
Test [7] addresses T2, PD-1 shown on cells (Raji-PD-1 cells); CD3/CD28 activated human CD8+ T cells; PD-1 effector cells of the … (human, UniProt Q15116 25-288). As to the kind of experiment: cell-based or functional assay.
For test [8], the target named is T2, PD-1 shown on cells (Raji-PD-1 cells; …). As to the kind of experiment: cell-based or functional assay. This is another data set of the same source.
Test [9] shares this target. The experiment in a line: cell-based or functional assay. This is another data set of the same source.
Test [10] shares this target. The experiment in a line: flow cytometry, on-cell binding to PD-1 expressing Raji cells, anti-human IgG-PE.
Test [11] has the same target. The test is described as above. This is another data set of the same source.
For test [12] the target is unchanged. The test is described as above. This is another data set of the same source.
The target is the same in test [13]. As to the kind of experiment: flow cytometry on CD3+CD8+ T cells within CD3/CD28 activated human PBMCs, 1 h at 4 C, anti-human IgG PE, % anti-hIgG+; table CD8+ T cells under the graph. The procedure: Mixed donor lots of human peripheral blood mononuclear cells (PBMCs) were thawed and seeded in medium (RPMI1640, 10% fetal bovine serum (FBS), 2 mM 1-Glutamine, 50 U/mL penicillin, 50 μg/mL streptomycin, 1 μM each of non-essential amino acids, 10 mM HEPES, 1 mM sodium pyruvate, 55 μM B-mercaptoethanol, 10 μg/mL gentamycin) into tissue culture treated plates that were coated for 1 h at 37° C. with 1 μg/ml anti-CD3. Anti-CD28 was added in solution at a concentration of 5 μg/ml. Two days later the PBMCs were collected and transferred into a 96 well v-bottom plate at 100,000 cells per well in FACS Buffer (2% FBS in phosphate buffered saline (PBS)). Test articles were diluted to twice the indicated concentration in FACS buffer. Test articles were added to cells at a 1:1 ratio to the final concentration indicated in the figure and incubated for 1 h at 4° C. The cells were washed three times with FACS buffer and fixed in 4% PFA. Cells were then washed once in FACS buffer. All cells were stained in 100 μL of indicated molecules in FACS buffer for 1 h at 4° C. The cells were washed three times with FACS buffer and fixed in 4% paraformaldehyde (PFA). All cells were subsequently stained in 100 μL with anti-human IgG PE, anti-CD3 PE/Dazzle 594, anti-CD45 PerCP Cy5.5, anti-CD8 BV510, and anti-CD4 BV421 for 30 minutes. Cells were washed twice to remove unbound antibody and analyzed on the BD Celesta by gating on CD3+CD8+ T cells.
A general note: A flow cytometer gives signals particle by particle.

T2 sequence (Q15116 25-288): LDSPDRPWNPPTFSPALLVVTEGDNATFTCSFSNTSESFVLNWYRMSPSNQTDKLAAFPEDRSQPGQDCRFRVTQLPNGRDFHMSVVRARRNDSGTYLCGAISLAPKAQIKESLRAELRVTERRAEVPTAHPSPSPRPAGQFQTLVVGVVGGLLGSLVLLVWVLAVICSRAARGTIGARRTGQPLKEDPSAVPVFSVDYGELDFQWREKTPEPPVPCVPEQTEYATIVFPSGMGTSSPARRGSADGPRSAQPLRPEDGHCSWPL
T1 sequence (Q15116 25-167 limits assumed): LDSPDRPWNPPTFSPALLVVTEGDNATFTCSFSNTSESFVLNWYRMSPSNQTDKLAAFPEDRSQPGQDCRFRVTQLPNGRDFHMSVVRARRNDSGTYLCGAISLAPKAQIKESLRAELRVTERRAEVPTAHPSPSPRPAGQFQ

B1: TC4 (Fc fusion)
heavy 1: QVQLVQSGVEVKKPGASVKVSCKASGYTFTNYYMYWVRQAPGQGLEWMGGINPSNGGTNFNEKFKNRVTLTTDSSTTTAYMELKSLQFDDTAVYYCARRDYRFDMGFDYWGQGTTVTVSSASTKGPSVFPLAPSSKSTSGGTAALGCLVKDYFPEPVTVSWNSGALTSGVHTFPAVLQSSGLYSLSSVVTVPSSSLGTQTYICNVNHKPSNTKVDKKVEPKSCDKTHTCPPCPAPELLGGPSVFLFPPKPKDTLMISRTPEVTCVVVDVSHEDPEVKFNWYVDGVEVHNAKTKPREEQYASTYRVVSVLTVLHQDWLNGKEYKCKVSNKALPAPIEKTISKAKGQPREPQVYTLPPCRDELTKNQVSLWCLVKGFYPSDIAVEWESNGQPENNYKTTPPVLDSDGSFFLYSKLTVDKSRWQQGNVFSCSVMHEALHNRFTQKSLSLSPGGGSSPPGGGSSGGGSGPAPTSSSTKKTQLQLEHLLLDLQMILNGINNYKNPKLTAMLTAKFAMPKKATELKHLQCLEEALKPLEEVLNLAQSKNFHLRPRDLISNINVIVLELKGSETTFMCEYADETATIVEFLNRWITFAQSIISTLT
heavy 2: QVQLVQSGVEVKKPGASVKVSCKASGYTFTNYYMYWVRQAPGQGLEWMGGINPSNGGTNFNEKFKNRVTLTTDSSTTTAYMELKSLQFDDTAVYYCARRDYRFDMGFDYWGQGTTVTVSSASTKGPSVFPLAPSSKSTSGGTAALGCLVKDYFPEPVTVSWNSGALTSGVHTFPAVLQSSGLYSLSSVVTVPSSSLGTQTYICNVNHKPSNTKVDKKVEPKSCDKTHTCPPCPAPELLGGPSVFLFPPKPKDTLMISRTPEVTCVVVDVSHEDPEVKFNWYVDGVEVHNAKTKPREEQYASTYRVVSVLTVLHQDWLNGKEYKCKVSNKALPAPIEKTISKAKGQPREPQVCTLPPSRDELTKNQVSLSCAVKGFYPSDIAVEWESNGQPENNYKTTPPVLDSDGSFFLVSKLTVDKSRWQQGNVFSCSVMHEALHNHYTQKSLSLSPGGPPSGSSPVPLSLYSGSGGGAVNGTSQFTCFYNSRANISCVWSQDGALQDTSCQVHAWPDRRRWNQTCELLPVSQASWACNLILGAPDSQKLTTVDIVTLRVLCREGVRWRVMAIQDFKPFENLRLMAPISLQVVHVETHRSNISWEISQASHYFERHLEFEARTLSPGHTWEEAPLLTLKQKQEWISLETLTPDTQYEFQVRVKPLQGEFTTWSPWSQPLAFRTKPAALGKD
light: EIVLTQSPATLSLSPGERATLSCRASKGVSTSGYSYLHWYQQKPGQAPRLLIYLASYLESGVPARFSGSGSGTDFTLTISSLEPEDFAVYYCQHSRDLPLTFGGGTKVEIKRTVAAPSVFIFPPSDEQLKSGTASVVCLLNNFYPREAKVQWKVDNALQSGNSQESVTEQDSKDSTYSLSSTLTLSKADYEKHKVYACEVTHQGLSSPVTKSFNRGEC
Broadly, the Kd is the free concentration of one partner at which half of the binding sites on the other are occupied at equilibrium, for simple one-to-one binding. High values mean lower affinity, low ones higher affinity. What is called koff is the rate constant with which the complex falls apart. A lower koff goes with slow dissociation. One may read the kon as the rate constant with which the complex forms. In [1], B1 came in with a dissociation constant (Kd) of 6.58 nM, a koff of 0.00306 s⁻¹ and a kon of 465000 M⁻¹ s⁻¹.

B2: TC46 (Fc fusion)
heavy 1: QVQLVQSGVEVKKPGASVKVSCKASGYTFTNYYMYWVRQAPGQGLEWMGGINPSNGGTNFNEKFKNRVTLTTDSSTTTAYMELKSLQFDDTAVYYCARRDYRFDMGFDYWGQGTTVTVSSASTKGPSVFPLAPSSKSTSGGTAALGCLVKDYFPEPVTVSWNSGALTSGVHTFPAVLQSSGLYSLSSVVTVPSSSLGTQTYICNVNHKPSNTKVDKKVEPKSCDKTHTCPPCPAPELLGGPSVFLFPPKPKDTLMISRTPEVTCVVVDVSHEDPEVKFNWYVDGVEVHNAKTKPREEQYASTYRVVSVLTVLHQDWLNGKEYKCKVSNKALPAPIEKTISKAKGQPREPQVYTLPPCRDELTKNQVSLWCLVKGFYPSDIAVEWESNGQPENNYKTTPPVLDSDGSFFLYSKLTVDKSRWQQGNVFSCSVMHEALHNRFTQKSLSLSPGGGSSPPGGGSSGGGSGPAPTSSSTKKTQLQLEHLLLDLQMILNGINNYKNPKLTAMLTAKFAMPKKATELKHLQCLEEALKPLEEVLNLAQSKNFHLRPRDLISNINVIVLELKGSETTFMCEYADETATIVEFLNRWITFAQSIISTLT
heavy 2: QVQLVQSGVEVKKPGASVKVSCKASGYTFTNYYMYWVRQAPGQGLEWMGGINPSNGGTNFNEKFKNRVTLTTDSSTTTAYMELKSLQFDDTAVYYCARRDYRFDMGFDYWGQGTTVTVSSASTKGPSVFPLAPSSKSTSGGTAALGCLVKDYFPEPVTVSWNSGALTSGVHTFPAVLQSSGLYSLSSVVTVPSSSLGTQTYICNVNHKPSNTKVDKKVEPKSCDKTHTCPPCPAPELLGGPSVFLFPPKPKDTLMISRTPEVTCVVVDVSHEDPEVKFNWYVDGVEVHNAKTKPREEQYASTYRVVSVLTVLHQDWLNGKEYKCKVSNKALPAPIEKTISKAKGQPREPQVCTLPPSRDELTKNQVSLSCAVKGFYPSDIAVEWESNGQPENNYKTTPPVLDSDGSFFLVSKLTVDKSRWQQGNVFSCSVMHEALHNHYTQKSLSLSPGGPPSGSSPMPYDLYHPSGGGAVNGTSQFTCFYNSRANISCVWSQDGALQDTSCQVHAWPDRRRWNQTCELLPVSQASWACNLILGAPDSQKLTTVDIVTLRVLCREGVRWRVMAIQDFKPFENLRLMAPISLQVVHVETHRACISWEISQASHYFERHLEFEARTLSPGHTWEEAPLLTLKQKQEWICLETLTPDTQYEFQVRVKPLQGEFTTWSPWSQPLAFRTKPAALGKD
light: EIVLTQSPATLSLSPGERATLSCRASKGVSTSGYSYLHWYQQKPGQAPRLLIYLASYLESGVPARFSGSGSGTDFTLTISSLEPEDFAVYYCQHSRDLPLTFGGGTKVEIKRTVAAPSVFIFPPSDEQLKSGTASVVCLLNNFYPREAKVQWKVDNALQSGNSQESVTEQDSKDSTYSLSSTLTLSKADYEKHKVYACEVTHQGLSSPVTKSFNRGEC
notes: Mask CD122 (C122A, N123C); also called PembroFab-IgG1 (N297A, MST, RF)-CD122*
One may read the EC50 (read off the curve) as the concentration needed to bring the measured effect to its halfway point. The low end stands for higher potency in that assay, the high end for lower potency in that assay. For orientation: EC50 means the concentration at which the effect is half-maximal. Regarding B2, the Kd in test [2] came out at 0.33 nM; in [6], 0.18 nM. Further, the “EC50 (read off the curve)” value in [3] is around 0.2 nM; in [4], around 0.2 nM; in test [5], around 0.2 nM; in [7] it was around 1 nM; in [10] it was around 0.7 nM; in test [11], around 0.7 nM. The figures for the “EC50, PD-1/PD-L1 blockade RGA (NFAT fold induction)” value in [8] and in test [9] were 1.34 nM and 1.47 nM, respectively. The EC50 in test [12] came out at 0.8 nM; in test [13] it was 0.09 nM.
